The results in this text go back to patent US20140031247.

Series [1] deals with biotinylated recombinant Notch1 substrate N1-Sb1.
For series [2], the system named is N1-Sb1 substrate with P2 substitution C1752A.
Series [3] has as its system N1-Sb1 substrate with P2 substitution C1752M.
For series [4], the system named is N1-Sb1 substrate with P2 substitution C1752V.

Sequence of biotinylated recombinant Notch1 substrate N1-Sb1 (chain, as listed by the source): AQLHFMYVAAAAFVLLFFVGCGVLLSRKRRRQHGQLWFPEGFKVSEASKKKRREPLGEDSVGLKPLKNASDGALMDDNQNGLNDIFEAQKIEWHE

With γ-secretase of HeLa cell membrane, in series [1], the “apparent Km” value is “the apparent Km of N1-Sb1 cleavage by γ-secretase is 0.15±0.03 µM”.
For “γ-secretase with E280A PS1 (membrane of N2a cells stably expressing E280A PS1)”, the “rate of γ-secretase cleavage compared with WT substrate” value (“rate … compared with WT substrate” for short) in series [2] was “significantly reduced reactivity for all three forms of γ-secretase (20-30% remaining)”; in series [3], “E280A (185.5±7.4%) PS1”; in series [4], “had no effect on WT (left panel) and E280A PS1 (right panel)”. In addition, the Km entry in series [1] was “the Km values for N1-Sb1 cleavage by PS1 wild-type, M146L, and E280A FAD mutants are 70, 49, and 50 nM, respectively”.
As to “γ-secretase with M146L PS1 (membrane of N2a cells stably expressing M146L PS1)”, the “rate … compared with WT substrate” value was “significantly reduced reactivity for all three forms of γ-secretase (20-30% remaining)” in series [2], “significantly enhanced activity for M146L (166.4±6.1%)” in series [3] and “considerably increased reactivity for M146L PS1 γ-secretase (141.3±17.9%0” in series [4]. For the same substance, the Km entry in series [1] is “the Km values for N1-Sb1 cleavage by PS1 wild-type, M146L, and E280A FAD mutants are 70, 49, and 50 nM, respectively”.
Turning to “γ-secretase with M146V PS1 (membrane of M146V PS1 knock-in mouse brain)”, the Km entry in series [1] is “The Km values of WT and M146V PS1 are 60 and 48 nM, respectively”. For the same substance, the “rate … compared with WT substrate” value in series [3] is on record as “enhanced activity for M146V knock-in PS1 (127.4±3.7%)”.
For “γ-secretase with wild type PS1 (membrane of knock-in wild type PS1 mouse brain)”, in series [1], the Km result was “The Km values of WT and M146V PS1 are 60 and 48 nM, respectively”. In addition, the “rate … compared with WT substrate” value in series [3] is reported as “C1752M substrate also had no effect on WT PS1 (left panel)”.
Regarding “γ-secretase with wild-type PS1 (membrane of N2a cells stably expressing WT PS1)”, the “rate … compared with WT substrate” value in series [2] was “significantly reduced reactivity for all three forms of γ-secretase (20-30% remaining)”; in series [3], “C1752M substrate had no effect on WT (left panel)”; in series [4], “had no effect on WT (left panel) and E280A PS1 (right panel)”. In series [1], the Km entry is “the Km values for N1-Sb1 cleavage by PS1 wild-type, M146L, and E280A FAD mutants are 70, 49, and 50 nM, respectively”.
